Reference: the supplement of paper PMC9732359
± gives the uncertainty stated by the source.

Assay: protein stability index of a GFP-peptide fusion (yeast GPS) (PSI 1-4); higher = more stable; sorted into four equal gates, so the index is relative within each strain
Procedure, shortened: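 Yeast carrying a pooled library were grown to mid-log phase in leucine-free medium. Each library plasmid expresses Cherry and has a tiled 17-residue yeast protein peptide fused downstream of GFP. Cells were sorted into four equal gates by GFP/Cherry ratio, and plasmids from each gate were PCR-amplified, Illumina-sequenced and assigned to strains by barcode. Summing, across gates, the read frequency times the gate number gave each peptide's protein stability index.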

Row | Sequence | protein stability index (doa10∆) | protein stability index (pdr5∆) | protein stability index (san1∆) | protein stability index (ubr1∆)
1 | ALVKPETQFKLSRPYKA [CDC53] | 2.41 ± 0.068 | 2.64 ± 0.059 | 2.59 ± 0.059 | 2.34 ± 0.063
2 | KQFLTKDLKFPLPHRVQ [RPL20A] | 2.67 ± 0.075 | 2.78 ± 0.057 | 2.86 ± 0.057 | 2.78 ± 0.046
3 | ERKEREDFQKRQQKLLE [SWI1] | 3.27 ± 0.073 | 3.32 ± 0.06 | 3.34 ± 0.049 | 3.2 ± 0.048
4 | FPEVFQVNIRFLLHNSE [SRB8] | 1.64 ± 0.1 | 1.73 ± 0.13 | – | 2.62 ± 0.17
5 | RQQQQRSILQSLNPALQ [SWI1] | 1.76 ± 0.051 | 1.92 ± 0.06 | 1.54 ± 0.084 | 1.89 ± 0.053
6 | IRAIRKVISEILTREVQ [RPS1B] | 1.92 ± 0.07 | 1.65 ± 0.05 | 1.25 ± 0.08 | 1.67 ± 0.14
7 | YLSDLKQFFQMTPLLVN [PCI8] | 1.69 ± 0.043 | 1.74 ± 0.044 | 1.51 ± 0.066 | 1.51 ± 0.026
8 | IDEVDSIATKRFDAQTG [RPT3] | 3.12 ± 0.12 | 3.18 ± 0.076 | 2.93 ± 0.075 | 3.38 ± 0.1
9 | IDYHKTAKETKMLMNLH [RPN11] | 2.5 ± 0.061 | 2.45 ± 0.06 | 2.84 ± 0.057 | 2.58 ± 0.055
10 | FLLNQNKQLSQSVEEKV [YIL149C/MLP2] | 2.16 ± 0.084 | 1.84 ± 0.1 | 1.77 ± 0.14 | 2.09 ± 0.068
11 | FEYCRIDGSTSHEERIE [ISW2] | 2.44 ± 0.047 | 2.23 ± 0.052 | 2.01 ± 0.061 | 2.49 ± 0.05
12 | LKSAENSGKQQYYRGLP [SWP82] | 2.25 ± 0.1 | 2.24 ± 0.067 | 2.25 ± 0.21 | 2.75 ± 0.068
13 | DEITEDMFEMSDEEENN [SSN2] | 3.16 ± 0.099 | 3.39 ± 0.11 | 3.25 ± 0.08 | 3.2 ± 0.075
14 | VDFIKHSLSQAIKWDGS [PRE3] | 1.75 ± 0.15 | 2.29 ± 0.12 | 1.61 ± 0.26 | 2.48 ± 0.2
15 | RNARATRAAKIAPRPLD [RPL13A] | – | – | 3.33 ± 0.1 | –
16 | ISEFDSFTDILKSAIRD [RPN12] | 2.73 ± 0.12 | 3.15 ± 0.17 | 3.04 ± 0.11 | 2.42 ± 0.13
17 | SLKTKLNSNIRAGVTIP [SNF5] | 2.6 ± 0.077 | 2.72 ± 0.051 | 2.36 ± 0.066 | 2.63 ± 0.047
18 | RKEGPTIYYVDSDGTRL [PRE2] | 2.24 ± 0.048 | 1.9 ± 0.034 | 2.03 ± 0.074 | 2.32 ± 0.034
19 | MASTELSLKRTLTDILE [RPN4] | 1.26 ± 0.18 | 2.65 ± 0.17 | 2.72 ± 0.16 | 2.02 ± 0.29
20 | PQLTFTHVANFMNDAAA [YML103C/NUP188] | 3.04 ± 0.094 | 3 ± 0.082 | 2.7 ± 0.068 | 2.95 ± 0.05
21 | KRVSGTSQHSDSLTQNN [YOR098C/NUP1] | 2.5 ± 0.088 | 2.71 ± 0.055 | 2.73 ± 0.072 | 2.68 ± 0.054
22 | REIVMPAHTKYMLIEEA [ITC1] | 3.2 ± 0.1 | 3.42 ± 0.1 | 3.03 ± 0.071 | 3.31 ± 0.13
23 | KTSSGSYNYVENGIEVE [ITC1] | 3.31 ± 0.18 | 3.2 ± 0.2 | 2.95 ± 0.12 | 3.31 ± 0.17
24 | GLNRHYYSLNIDYHKTA [RPN11] | – | 2.27 ± 0.29 | 2.85 ± 0.12 | 2.61 ± 0.14
25 | VLVSSVTEANIIKLVEG [RPS12] | 2.52 ± 0.12 | 2.58 ± 0.067 | 2.67 ± 0.083 | 2.71 ± 0.072
26 | ASDLVLIVIDVVEGVTF [SNU114] | 1.33 ± 0.041 | 1.58 ± 0.059 | 2.07 ± 0.1 | 2.38 ± 0.047
27 | KLDSKKTVPFQVNQLQR [SSN3] | 3.15 ± 0.063 | 3.28 ± 0.042 | 3.19 ± 0.046 | 3.12 ± 0.049

Row | Sequence | protein stability index (doa10∆) | protein stability index (pdr5∆) | protein stability index (san1∆) | protein stability index (ubr1∆)
28 | DLALPPPPPPPPGYEIE [PRP8] | 3.08 ± 0.088 | 2.98 ± 0.11 | 2.54 ± 0.14 | 2.95 ± 0.073
29 | VLFAAYKVEHPFFARFK [RPB11] | 2.71 ± 0.089 | 1.87 ± 0.05 | 2.18 ± 0.067 | 2.27 ± 0.1
30 | AVLNVSPVYDVDPRIIN [NUT1] | 2.2 ± 0.078 | 2.29 ± 0.064 | 1.82 ± 0.091 | 2.17 ± 0.06
31 | QILSTVVEDKPLLSKKE [SMB1] | 1.15 ± 0.061 | 1.19 ± 0.042 | 1.19 ± 0.12 | 1.48 ± 0.054
32 | TSSVILGSQSKSDEGGS [YOR098C/NUP1] | – | 2.23 ± 0.12 | – | 1.81 ± 0.15
33 | KDLENAQVEMKSLEEQE [SMC1] | 3.43 ± 0.14 | 3.12 ± 0.1 | 3.37 ± 0.085 | 3.3 ± 0.081
34 | LQDLEEAKSFQDEAELV [RPC82] | 3.5 ± 0.12 | 3.3 ± 0.15 | 3.52 ± 0.14 | 3.72 ± 0.17
35 | AEDQILANFVAKGFYHT [SRB8] | 2.91 ± 0.092 | 3.25 ± 0.055 | 3.25 ± 0.12 | 3.05 ± 0.065
36 | PAGMNETPKSNNSLSYH [ITC1] | 2.08 ± 0.14 | 3.22 ± 0.12 | 2.56 ± 0.14 | 3 ± 0.092
37 | LRDREDWGQALRLLLLL [YJR042W/NUP85] | 2.83 ± 0.066 | 2.13 ± 0.067 | 2.2 ± 0.083 | 1.66 ± 0.044
38 | YFAKLREYLEEYKSLFV [RPP0] | 2.46 ± 0.19 | 2.65 ± 0.15 | 2.98 ± 0.073 | 3.24 ± 0.095
39 | AQTEIKLFNKWSFEEVE [RPS5] | 3.2 ± 0.092 | 3.23 ± 0.11 | 3.51 ± 0.09 | 3.22 ± 0.069
40 | LLHHVSELDSNDFFIIY [YJL039C/NUP192] | 1.7 ± 0.088 | 1.74 ± 0.088 | 1.61 ± 0.14 | 2.02 ± 0.078
41 | KDIVNISIPKTCDEIQN [REC8] | 2.81 ± 0.067 | 2.74 ± 0.056 | 2.54 ± 0.05 | 2.84 ± 0.042
42 | TQTGLLQDLEEAKSFQD [RPC82] | 2.27 ± 0.25 | 2.46 ± 0.12 | 2.13 ± 0.14 | 2.59 ± 0.11
43 | PSEDVAALKKTRKAARP [RPL6A] | 2.83 ± 0.062 | 3.02 ± 0.048 | 2.95 ± 0.039 | 3.05 ± 0.047
44 | LEYWCNPPYSQCIVYPN [SOH1] | 2.03 ± 0.048 | 2.27 ± 0.045 | 2.05 ± 0.054 | 2.13 ± 0.037
45 | RREVQIQLQEFLLSAMT [NSL1] | 1.42 ± 0.052 | 1.68 ± 0.11 | 1.47 ± 0.12 | 1.68 ± 0.063
46 | EILEHICYDVNDWQMLE [RPB2] | 2.84 ± 0.12 | 3.02 ± 0.086 | 2.74 ± 0.08 | 2.98 ± 0.081
47 | TTGGDYILSLVSIKDST [YMR129W/POM152] | 1.99 ± 0.042 | 2.04 ± 0.034 | 1.89 ± 0.052 | 1.68 ± 0.028
48 | DMANEIILSIDEHHESF [RRP6] | 3.01 ± 0.068 | 2.98 ± 0.093 | 2.95 ± 0.062 | 2.9 ± 0.049
49 | STAFQNTPLSLPTRGTL [COR1] | 2.27 ± 0.05 | 2.38 ± 0.038 | 1.97 ± 0.05 | 2.59 ± 0.035
50 | SQEMVPRYFSEAINGFK [SIR3] | 2.99 ± 0.079 | 3.01 ± 0.088 | 3.14 ± 0.058 | 2.94 ± 0.054
51 | LVALLSRDLWCFSINDD [SSN2] | 2.1 ± 0.076 | 1.71 ± 0.08 | 2.5 ± 0.098 | 2.69 ± 0.098
52 | SADPSLLIDQFSPVISQ [SWI1] | 2.85 ± 0.12 | 3.08 ± 0.1 | 2.51 ± 0.18 | 2.96 ± 0.067
53 | NDIPLGSGQPDNDTVVT [SRB8] | 3.3 ± 0.12 | 3.18 ± 0.16 | 2.51 ± 0.14 | 3.12 ± 0.28
